Test results published in patent US20100009390A1, “MUTANT ANTIBODIES WITH HIGH AFFINITY FOR EGFR” (THE REGENTS OF THE UNIVERSITY OF CALIFORNIA, priority 2008, published 2010).
“Also recorded” adds a separate entry of the source. Read-outs that look alike come from different tables or passages of the source.

Key:
MDAMB231 cells = assay: Uptake of EGFR immunoliposomes into cells of lower EGFR density; format: cell-based, human; conditions: all scFv densities studied; 480,000 EGFR/cell
Procedure: (§1) scFv-mediated internalization of fluorescent immunoliposomes was analyzed and quantified by microscopy and flow cytometry. C10 scFv fragments were inserted into liposomes at ratios of 5, 10, 15, 30 and 60 μg scFv/μmol phospholipid (Mamot et al. (2003) Cancer Res. 63: 3154-3161). scFv densities of 16, 32, 48, 96 and 192 scFv/liposome were calculated on the basis of the molecular mass of scFv (26 kDa) and the approximate number of phospholipid molecules/liposome (80,000). The conjugation technology for scFv to Mal-PEG-DSPE is remarkably reproducible with an efficiency of 77.3(±3.1) % (range 75-82% over six batches) (Nellis et al. (2005) Biotechnol. Prog. 21: 205-220). […] For microscopy studies, 150,000 cells were incubated with 50 μM PL of untargeted and EGFR-targeted ILs labeled with DiIC18(3)-DS in a 12-well plate for 2 h at 37° C., followed by washing with PBS and further incubation at 37° C. for 2 h. The cells were then analyzed by using an inverted fluorescence microscope (Nikon Eclipse, TE300) with a 540/25 nm band-pass filter for excitation and a long-pass filter at 565 nm for emission. For quantitative uptake of immunoliposomes, 250,000 cells were incubated with EGFR-targeted ILs labeled with ADS645 in a six-well plate for 2 h at 37° C., washed with PBS, removed in trypsin solution and fluorescence quantified with a FACSAria instrument (Beckton Dickinson). To determine the effect of EGF competition on internalization of EGFR-targeted ILs, IL internalization was quantified as described above, except that 50 μM targeted ILs and cells were incubated with EGF concentrations ranging from 0.2-25 nM. ANOVA (analysis of variance) was used to analyze the statistical differences of the quantified uptake.
To determine the impact of receptor density on IL uptake, we measured the uptake of the different ILs into MDAMB231 cells which express 480,000 EGFR/cell as determined by flow cytometry using Quantum Simply Cellular anti-Human IgG beads (Bangs Laboratories Inc.). […] Uptake into MDAMB231 cells increased with increasing scFv density, reaching a plateau at an IL scFv density of 74 scFv/IL for P2/4 scFv and at 37 scFv/IL for 2224 scFv (FIG. 6C).

[1] = biological target: T1, EGFR (vIII) stably transfected NR6M cells (Homo sapiens, UniProt P00533, DELINS30-297G); assay: Binding specificity of scFv by flow cytometry
T1 construct: expressed in transfected cells; host or cells: NR6M cells (NR6 stably transfected with EGFR (vIII)), gift of Dr Daryl D Bigner
Procedure: (§2) The binding of C10 scFv and C10 mutants to EGFR (vIII) stably transfected NR6M cells and parental NR6 cells was also measured.

parental NR6 cells = assay: Binding specificity of scFv by flow cytometry; conditions: NR6, EGFR negative
Procedure: as §2

A431 cells = biological target: T2, A431 cells (Homo sapiens, UniProt P00533); assay: Binding specificity of scFv by flow cytometry; conditions: A431, 1×10^6-3×10^6 EGFR/cell
T2 construct: endogenous in cells; host or cells: A431 cells

biotinylated EGFR-ECD = biological target: T3, biotinylated EGFR-ECD (Homo sapiens, UniProt P00533); assay: Yeast-displayed scFv affinity for biotinylated EGFR-ECD by flow cytometry; format: binding; conditions: concentrations as high as 8 μM
T3 construct: Recombinant EGFR-ECD was expressed in HEK293 cells; biotin (chemical label, NHS-sulfo-LC-biotin on amines); made in house; host or cells: HEK293 cells
Procedure: Generally, six to eight different concentrations of biotinylated EGFR were used to span a range of concentrations from ten times above to ten times below the KD. Incubation volumes, times and yeast numbers were chosen to ensure that the studies were done in at least fivefold antigen excess and that equilibrium had been achieved (Razai et al. (2005) J. Mol. Biol. 351: 158-169). For anti-EGFR scFv, […] in 50 μl were incubated with biotinylated EGFR-ECD for 1 h at room temperature. […] Only yeast displaying scFv (as determined by binding of SV5 mAb) were gated for affinity measurements.

MDAMB468 cells = assay: Binding specificity of scFv by flow cytometry; parameters: species or system Human; conditions: MDAMB468, 1×10^6-3×10^6 EGFR/cell
[2] = biological target: T4, MDAMB468 cells expressing EGFR (Homo sapiens, UniProt P00533); assay: Immunoliposome binding affinity for cells expressing EGFR (flow cytometry); conditions: read-out: Apparent KD of immunoliposomes
T4 construct: Human breast cancer MDAMB468 cells expressing EGFR; endogenous in cells; host or cells: MDAMB468 breast carcinoma cells
Procedure: Human breast cancer MDAMB468 cells expressing EGFR were grown to 80-90% confluence in L15 medium supplemented with 10% FBS and harvested by trypsinization. ILs labeled with DiIC18(3)-DS were incubated overnight with 10^4 cells at concentrations of IL ranging from 0.31-2.5 nM. The concentration of IL was converted from the concentration of phospholipid on the basis of the approximate number of phospholipid molecules per liposome (80,000). Cell binding was performed at 4° C. in FACS buffer in adequate volume to ensure a fivefold excess of ILs and that the reaction had come to equilibrium. After two washes with 200 μl of FACS buffer, the amount of cell-bound ILs was quantified by flow cytometry in a FACS LSRII (Becton Dickinson). Data analysis was the same as for the measurement of scFv KD.

[3] = system: EGFR-over-expressing MDAMB468 cells; assay: Internalization/uptake of anti-EGFR immunoliposomes (microscopy, flow cytometry); format: cell-based, Human
Procedure: as §1

MDAMB453 cells = assay: Binding specificity of scFv by flow cytometry; conditions: MDAMB453, only 10^4 EGFR/cell
[4] = biological target: T5, EGFR-expressing A431 cells (Homo sapiens, UniProt P00533); conditions: Heitner et al. (2001); read-out: KD of C10 scFv previously measured on EGFR-expressing tumor cells; cited from earlier work
T5 construct: host or cells: A431 cells

B1: C10: parental (wild-type) internalizing anti-EGFR human scFv from a non-immune phage antibody library; SEQ ID NO:1 (protein)
scFv: EVQLVQSGAEVKKPGSSVKVSCKASGGTFSSYAISWVRQAPGQGLEWMGGIIPIFGTANYAQKFQGRVTITADESTSTAYMELSSLRSEDTAVYYCAREEGPYCSSTSCYGAFDIWGQGTLVTVSS
modifications: Variable chain of single chain antibody.
MDAMB231 cells
  IL uptake into MDAMB231 cells compared to A431 cells: significantly less uptake
[1]
  scFv binding/staining of cells: strong staining; also recorded: stained
Parental NR6 cells
  scFv binding/staining of cells: minimal binding; also recorded: did not stain
A431 cells
  scFv binding/staining of cells: stained
Biotinylated EGFR-ECD
  binding of yeast-displayed scFv to biotinylated recombinant EGFR: minimal binding
MDAMB468 cells
  scFv binding/staining of cells: stained
[2]; 74 scFv/liposome
  Kd: 1.75 nM
[2]; 148 scFv/liposome
  Kd: 0.36 nM
[3]; 74 scFv/liposome, MDAMB468
  endocytosis of ILs by fluorescence microscopy: endocytosed efficiently
[3]; scFv densities of 74 scFv/liposome or less
  IL uptake compared to ILs from higher affinity scFv: less uptake
MDAMB453 cells
  scFv binding/staining of cells: did not stain
[4]
  Kd: 217 nM
